Results taken from US20090280109A1, “ILT3 and ILT4-related compositions and methods” (The Trustees of Columbia University in the City of New York, priority 2001, published 2009).
“Also recorded” adds a separate entry of the source.

B1: IL-10: Interleukin 10, immunoregulatory cytokine (protein, UniProt P22301 19-178, looked up)
Interleukin-10: SPGQGTQSENSCTHFPGNLPNMLRDLRDAFSRVKTFFQMKDQLDNLLLKESLLEDFKGYLGCQALSEMIQFYLEEVMPQAENQDPDIKAHVNSLGENLKTLRLRLRRCHRFLPCENKSKAVEQVKNAFNKLQEKGIYKAMSEFDIFINYIEAYMTMKIRN

Test system: ILT3 and ILT4 on monocytes and DCs
Test: Flow cytometry of ILT3, ILT4 and costimulatory molecules on APCs
Type: cell-based, human
Details: for ILT3 and ILT4 expression on APC (monocytes and dendritic cells): treatment of APC
Experimental: To study the expression of ILT3 or ILT4 and costimulatory molecules on normal APCs from peripheral blood or spleen cell suspensions, APCs were incubated with TS cells for 18 h with or without CD40L-transfected D1.1 cells (see Results). The cells were then collected, washed and saturating amounts of mAbs to ILT3 or ILT4 were added (21, 22). After 30 min on ice, cells were washed twice, stained with PE-goat-anti-mouse or PE-goat-anti-rat (Caltech, Burlingame, Calif.), then washed twice again, incubated with mouse or rat IgG (as a blocking antibody, Vector Labs, Burlingame, Calif.), washed twice, then stained with mAbs to FITC-CD14 or cychrome-CD11c, FITC-HLA-DR and PerCP-CD3 (Pharmingen, San Diego, Calif.). In other samples, mAbs to PE-CD80 and PE-CD86 were added along with markers for monocytes and DCs. CD3^+ T cells were gated-out and CD14^+ monocytes or CD14^− CD11c^+HLA-DR^+ immature DCs were analyzed with CellQuest software on a G4 Apple Macintosh Computer. Annexin V and PI staining of target APCs was done as described (12). Five parameter analyses (forward scatter, side scatter and three fluorescence channels) were used for list mode data analysis. The FL3 channel was used as a fluorescence trigger and FL1 and FL2 as analysis parameters.

Molecule | ILT3 and ILT4 expression on APC (monocytes and dendritic cells) | CD86 expression on human monocytes and DCs (within 20 h of incubation) | expression of ILT3 and ILT4 on the membranes of human monocytes and DCs (within 20 h of incubation)
TNF-alpha | increase the expression | – | –
B1 | induces upregulation; also recorded: increase the expression | down-regulated | up-regulated
